Laboratory results as given in US9969998B2, “Compositions of adenosine deaminase-2 (ADA2), variants thereof and methods of using same” (Halozyme, Inc., priority 2014, dated 2018).
Values joined by “and” are separate entries in the source; they are usually repeats but may differ in a detail not shown here. Equal entries are not always repeated.

How the values were obtained:
[1] = system: adenosine in tumor extracellular matrix; assay: Adenosine in MH194+PSC4 tumor extracellular matrix (microdialysis, LC/MS); assay type: in vivo, mice; conditions: for Adenosine concentration in ECM, Mean: n = 8; for Adenosine concentration in ECM, individual tumors: single animal values; for adenosine concentration in tumor ECM: 0.03 mg/kg
Experimental: To assess the effects of PEGADA2 on adenosine in tumor extracellular matrix, mice bearing peritibial MH194+PSC4 tumors received vehicle, the polypeptide whose sequence is set forth in SEQ ID NO:20, which contains the amino acid replacement K374D (Zavialov numbering; K371D mature numbering), at 0.03 mg/kg, or the polypeptide whose sequence is set forth in SEQ ID NO: 273, which contains the amino acid replacements R222Q/S265N (Zavialov numbering; R219Q/S262 mature numbering), at 0.03 mg/kg, 24 or 48 hours prior to microdialysis. Each of the polypeptides were PEGylated as described above in Examples 8 and 22). The mice were anesthetized using isofluorane, and a heating pad was used to maintain body temperature. A small incision was made on the tumor. A microdialysis probe with 55,000 Da molecular weight cut-off (CMA, Stockholm, Sweden) was inserted into the tumor, via a guided cannula. The length of the microdialysis probe used in this study was 10 mm. Once the probe was in position, the cannula was withdrawn leaving the probe completely embedded in the tumor tissue. Dulbecco's phosphate buffered saline (DPBS; Thermo Fisher Scientific) with ADA inhibitors (Pentostatin and 5-iodotubercindin) was perfused through the probe at a flow rate of 1 μl/min for 30 minutes. Then the samples were collected at a flow rate of 0.5 μl/min for 60 minutes. Microdialysis perfusates were analyzed by Liquid chromatography-mass spectrometry (LC/MS) at MicroConstants (9050 Camino Santa Fe, San Diego, Calif. 92121).

[2] = Distribution in normal organs of naive mice vs. CT26 tumors (IVIS); assay type: in vivo, Balb/c mice; conditions: 24 hr; for (Fluorescent intensity/Tissue Weight) - Baseline: 0.5 mg/kg IV
Experimental: To assess the distribution and elimination of administered PEG-ADA2-K374D in the tumor microenvironment or in normal organs, immunofluorescence was used to assess the presence of PEG-ADA2-K374D administered to mice. PEG-ADA2-K374D was labeled at room temperature for 60 minutes with DyLight755 Sulfydryl-Reactive Dye (DL755), a near-IR fluor, using the DyLight 755 Antibody Labeling Kit (Thermo Scientific, Rockford, Ill.). Alexa Fluor 750 (AF 750) labeled bovine serum albumin (BSA, 1 mg/mL) was purchased from (Life Technology, Carlsbad, Calif.).
To compare the distribution in naïve mice, CT26-tumor bearing mice were generated as described above, and were intravenously administered PEG-ADA2-K374D^DL755 at 0.5 mg/kg (n=3). Separately, naïve Balb/c mice also were intravenously administered PEG-ADA2-K374D^DL755 at 0.5 mg/kg (n=4). The mice were sacrificed and transcardically perfused with heparin normal saline 24 hours post PEG-ADA2-K374D^DL755 injection. Tumors from tumor-bearing mice and organs from naïve mice were collected and imaged with IVIS image system, and DL755 signal intensity was measured with LivingImage software as described above. Signal intensity was normalized by tissue organ weight.

[3] = system: CT26 syngeneic tumors; assay: Tumor growth inhibition of combination therapy with anti-PD-1 and anti-CTLA4, CT26 peritibial tumor model; assay type: in vivo, Balb/C mice; conditions: study day 10
Experimental: The murine CT26 syngeneic tumor model was used to compare the antitumor activity of combination therapy using PEGylated ADA2 with checkpoint inhibitors anti-PD-1 and anti-CTLA4 antibodies. CT26 syngeneic tumors were produced by injecting 2×10^5 CT26 cells in 0.05 mL injection volume per animal into the right peritibial muscle of male Balb/C mice. Tumor bearing mice were staged into treatment groups when the average tumor size reached 150 mm^3.
For treatment, animals were randomized into 8 groups (n=8/group) as follows: 1) saline vehicle control, 2) PEG-ADA2-K374D, 3) α-CTLA4 antibody (Clone 9D9, Cat. No. BE0164; BioXCell, West Lebanon, N.H., 4) α-PD-1 antibody (Clone RMP1-14, Cat. No. BE0146; BioXCell, West Lebanon, N.H.), 5) PEG-ADA2-K374D+α-CTLA4; 6) PEG-K374D+α-PD-1; 7) α-CTLA4+α-PD-1, or 8) Triple combo (PEG-ADA2-K374D+α-CTLA4+α-PD-1). PEG-ADA2-K374D was dosed intravenously 3× weekly at 10 mg/kg, α-CTLA4 was dosed intraperiotoneally biweekly at 4 mg/kg, and α-PD-1 was dosed intraperitoneally biweekly at 4 mg/kg. The sequence of dosing in the combination groups was as follows: PEG-ADA2-K374D followed by α-CTLA4 followed by α-PD-1.
Tumor volume was assessed twice weekly via ultrasound imaging using the Vevo2100 (Visual Sonics, Toronto, Canada) to determine tumor growth inhibition (TGI). Animals were anesthetized using light isoflurane anesthesia while the tumor volumes were measured. For tumor measurement, the region of interest was covered in ultrasound gel (Parker Laboratories, Fairfield, N.J.), and the RMV-716 (focal depth=17.5 mm) scan head was positioned directly over the region of interest. While in 2D-Mode, the approximate center of the tumor was located, and subsequently an image (˜150-200 frames) was captured using 3D-mode. Approximately 15-30 frames out of 150-200 frames were analyzed and a tumor volume calculated and expressed in mm^3. Tumor growth Inhibition (TGI) was calculated as described above.

B1: K374D: ADA2 variant SEQ ID NO:20 (protein)
chain: IDETRAHLLLKEKMMRLGGRLVLNTKEELANERLMTLKIAEMKEAMRTLIFPPSMHFFQAKHLIERSQVFNILRMMPKGAALHLHDIGIVTMDWLVRNVTYRPHCHICFTPRGIMQFRFAHPTPRPSEKCSKWILLEDYRKRVQNVTEFDDSLLRNFTLVTQHPEVIYTNQNVVWSKFETIFFTISGLIHYAPVFRDYVFRSMQEFYEDNVLYMEIRARLLPVYELSGEHHDEEWSVKTYQEVAQKFVETHPEFIGIKIIYSDHRSKDVAVIAESIRMAMGLRIKFPTVVAGFDLVGHEDTGHSLHDYKEALMIPAKDGVKLPYFFHAGETDWQGTSIDRNILDALMLNTTRIGHGFALSKHPAVRTYSWDKDIPIEVCPISNQVLKLVSDLRNHPVATLMATGHPMVISSDDPAMFGAKGLSYDFYEVFMGIGGMKADLRTLKQLAMNSIKYSTLLESEKNTFMEIWKKRWDKFIADVATK
modifications: human ADA2 K371D, mature numbering
- Adenosine concentration in ECM, Mean ([1]; 24 hours after 0.03 mg/kg): 19.54 µM
- Adenosine concentration in ECM, individual tumors ([1]; 24 hours after 0.03 mg/kg): 49.02 µM and 12.72 µM and 29.64 µM and 13.58 µM and 12.54 µM and 7.48 µM and 2.04 µM and 29.30 µM
- adenosine concentration in tumor ECM ([1]; 24 hours post treatment): 19.5 µM
- Adenosine concentration in ECM, Mean ([1]; 48 hours after 0.03 mg/kg): 11.06 µM
- Adenosine concentration in ECM, individual tumors ([1]; 48 hours after 0.03 mg/kg): 23.13 µM and 0.07 µM and 6.47 µM and 2.77 µM and 20.92 µM and 1.64 µM and 27.54 µM and 5.95 µM
- adenosine concentration in tumor ECM ([1]; 48 hours post treatment): 11 µM

B2: PEG-K374D: rHuADA2-K374D (SEQ ID NO:20) PEGylated on surface exposed lysines with linear PEG-20K (conjugate)
chain: IDETRAHLLLKEKMMRLGGRLVLNTKEELANERLMTLKIAEMKEAMRTLIFPPSMHFFQAKHLIERSQVFNILRMMPKGAALHLHDIGIVTMDWLVRNVTYRPHCHICFTPRGIMQFRFAHPTPRPSEKCSKWILLEDYRKRVQNVTEFDDSLLRNFTLVTQHPEVIYTNQNVVWSKFETIFFTISGLIHYAPVFRDYVFRSMQEFYEDNVLYMEIRARLLPVYELSGEHHDEEWSVKTYQEVAQKFVETHPEFIGIKIIYSDHRSKDVAVIAESIRMAMGLRIKFPTVVAGFDLVGHEDTGHSLHDYKEALMIPAKDGVKLPYFFHAGETDWQGTSIDRNILDALMLNTTRIGHGFALSKHPAVRTYSWDKDIPIEVCPISNQVLKLVSDLRNHPVATLMATGHPMVISSDDPAMFGAKGLSYDFYEVFMGIGGMKADLRTLKQLAMNSIKYSTLLESEKNTFMEIWKKRWDKFIADVATK
modifications: linear PEG-20K on surface lysines; human ADA2 K371D, mature numbering
- (Fluorescent intensity/Tissue Weight) - Baseline ([2]; Bone, naive mice): 1.82E+06
- (Fluorescent intensity/Tissue Weight) - Baseline ([2]; Brain, naive mice): 2.11E+05
- (Fluorescent intensity/Tissue Weight) - Baseline ([2]; Colon, naive mice): 9.13E+05
- (Fluorescent intensity/Tissue Weight) - Baseline ([2]; Heart, naive mice): 5.55E+05
- (Fluorescent intensity/Tissue Weight) - Baseline ([2]; Kidney, naive mice): 8.61E+05
- (Fluorescent intensity/Tissue Weight) - Baseline ([2]; Liver, naive mice): 4.02E+06
- (Fluorescent intensity/Tissue Weight) - Baseline ([2]; Lung, naive mice): 1.22E+06
- (Fluorescent intensity/Tissue Weight) - Baseline ([2]; Spleen, naive mice): 2.98E+06
- (Fluorescent intensity/Tissue Weight) - Baseline ([2]; Tumor, CT26 tumor-bearing mice): 6.22E+06
- Signal Intensity (Tumor vs Organ) ([2]; ratio tumor/Bone): 3.4
- Signal Intensity (Tumor vs Organ) ([2]; ratio tumor/Brain): 29.5
- Signal Intensity (Tumor vs Organ) ([2]; ratio tumor/Colon): 6.8
- Signal Intensity (Tumor vs Organ) ([2]; ratio tumor/Heart): 11.2
- Signal Intensity (Tumor vs Organ) ([2]; ratio tumor/Kidney): 7.2
- Signal Intensity (Tumor vs Organ) ([2]; ratio tumor/Liver): 1.5
- Signal Intensity (Tumor vs Organ) ([2]; ratio tumor/Lung): 5.1
- Signal Intensity (Tumor vs Organ) ([2]; ratio tumor/Spleen): 2.1
- Average Group Tumor Volume, SD10 ([3]; PEG-ADA2-K374D 10 mg/kg IV 3x weekly, α-CTLA4 4 mg/kg IP biweekly, α-PD-1 4 mg/kg IP biweekly, ultrasound): 1499.11 mm^3
- Tumor Growth Inhibition ([3]; PEG-ADA2-K374D 10 mg/kg IV 3x weekly, α-CTLA4 4 mg/kg IP, α-PD-1 4 mg/kg IP biweekly): exhibited tumor growth inhibition activity
- TGI ([3]; compared to vehicle control): 5%
- Volume Range ([3]; range of tumor volume of all animals in the group): 1213-1594 mm^3
